{"source": "paper PMC8209278", "about": "(iScience, 2021)", "binders": {"B1": {"name": "GST-fused full length Suv4-20h2 (enzyme)", "chain": "not shown"}}, "key": {"[1]": {"target": "Purified recombinant viral NP protein (influenza virus A/Puerto Rico/8/34 …, UniProt P03466 1-498)", "sequence (P03466 whole entry)": "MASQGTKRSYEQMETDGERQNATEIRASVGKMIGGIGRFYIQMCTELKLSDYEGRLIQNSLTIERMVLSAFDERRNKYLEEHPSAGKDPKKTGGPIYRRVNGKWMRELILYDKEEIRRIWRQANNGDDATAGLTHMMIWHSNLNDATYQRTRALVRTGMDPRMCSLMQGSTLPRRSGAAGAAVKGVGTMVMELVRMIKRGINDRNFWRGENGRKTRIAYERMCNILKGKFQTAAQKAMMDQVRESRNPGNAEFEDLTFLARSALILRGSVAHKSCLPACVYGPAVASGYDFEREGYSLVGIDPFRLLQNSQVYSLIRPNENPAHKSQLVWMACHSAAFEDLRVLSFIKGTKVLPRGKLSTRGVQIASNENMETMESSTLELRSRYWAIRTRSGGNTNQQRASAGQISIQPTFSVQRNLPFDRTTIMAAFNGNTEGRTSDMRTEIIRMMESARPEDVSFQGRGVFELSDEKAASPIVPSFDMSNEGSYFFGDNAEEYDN", "assay": "pull-down"}, "[2]": {"target": "Purified recombinant viral PB2 protein (influenza virus A/Puerto Rico/8/34 …, UniProt P03428 1-759)", "assay": "pull-down"}}, "data": [{"binder": "B1", "values": [{"measurement": "binding result", "setting": "[1]", "value": "binds"}, {"measurement": "binding result", "setting": "[2]", "value": "binds"}]}]}
